Source: PMC8299219 (Cell, 2021)
Where a chain is given by its changes, count along the chain named.

B1: G32B6 (antibody, V domains shown)
VH: QVQLVQSGAEVKKPGASVKVSCKASGYTFTGYYMYWVRQAPGQGLEWMGWINPNSGGTNYAQKFQGRVTMTRDRSISTAYMELSRLRSDDTAMYYCARDRVGDILTGYYGYWGQGTLVTVSS
VL: QSALTQPPSASGSPGQSVTISCTGTSSDVDSYNYVSWYQQHPGKAPKLMIYEVSKRPSGVPDRFSGSKSGNTASLTVSGLQAEDEADYYCSSYAGSNNWVFGGGTKLTVL
B2: G32A8 (antibody, V domains shown)
VH: QVQLVQSGAEVKKPGASVKVSCKASGYTFTGYYMHWVRQAPGQGLEWMGWINPNSGATNYAQKFQGRVTMTRDTSINTAYMELNRLRSDDTAVYYCARDIVFSRLGASFDYWGQGTLVTVSS
VL: B1 VL with D30G, S31G, S54T, N98Y, W99N
B3: C63D3 (antibody, V domains shown)
VH: EVQLVESGGGLVQPGGSLRLSCAASGFTFSSYDMHWVRQATGKGLEWVSVIGTAGDTYYPGSVKGRFTISRENAKNSLYLQMNSLRAGDTAVYYCARGHSTGQGYSYYYYMDVWGKGTTVTVSS
VL: not shown
B4: C41P1 (antibody, V domains shown)
VH: QVQLVESGGGVVQPGRSLRLSCAASGFTFSSYAMHWVRQAPGKGLEWVAVISYDGRNKYYADSVKGRFTISRENSKNTLYLQMNSLRAEDTAVYYCARDLGVVVPAAIGWVNPRDDYYYYYGMDVWGQGTTVTVSS
VL: SYELTQPPSVSVSPGQTARITCSGDALPKQYAYWYQQKPGQAPVLVIYKDSERPSGIPERFSGSSSGTTVTLTISGVQAEDEADYYCQSADSSGTYRVFGTGTKVTVL
B5: C53E1 (antibody, V domains shown)
VH: EVQLVQSGAEVKKPGESLKISCKGSGYSFTSYWIGWVRQMPGKGLEWMGIIYPGDSDTTYSPSFQGQVTISADKSISTAYLQWSSLKASDTAMYYCARRSNSPFPLIDYWGQGTLVTVSS
VL: not shown
B6: C89A10 (antibody, V domains shown)
VH: EVQLLESGGGLVQPGGSLRLSCAASGFIFSSYAMSWVRQAPGKGLEWVSVISGSGDITYYADSVKGRFTISRDNSKNTLYLQMNSLRAEDTAVYYCAKDIDEPTAMVESWGYWGQGTLVTVSS
VL: QSALTQPRSVSGSPGQSVTISCTGTSSDVGGYNYVSWYQQHPGKAPKLMIYDVSKRPSGVPDRFSGSKSGNTASLTISGLQAEDEADYYCCSYAGSWVFGGGTKLTVL
B7: C63C7 (antibody, V domains shown)
VH: not shown
VL: QSVLTQPPSVSGAPGQRATISCTGSSSNIGAGYDVHWYQQLPGTSPKLLIYGNSNRPSGVPDRFSGSKSGTSASLAITGLQAEDEAEYYCQSYDSSLSGSVVFGGGTKLTVL
B8: C18C10 (antibody, V domains shown)
VH: EVQLVESGGGLVQPGGSLRLSCAASGFTFSNYAISWVRQAPGKGLEWVSLISGSGGSTYYADSVKGRFTISRDNSKNTLYLQMNSLRAEDTAVYYCATTNIPPFSGYYLDAFDIWGQGTMVTVSS
VL: not shown
B9: C63C8 (antibody, V domains shown)
VH: EVQLVESGGGLVQPGGSLRLSCAASGFTFSSYWMSWVRQAPGKGLEWVANIKQDGSEKYYVDSVKGRFTMSRDNAKNSLYLQMNSLRAEDTAVYYCASLRWLQADFEYWGQGTLVTVSS
VL: NFMLTQPHSVSESPGKTVTISCTRSSGSIASNYVQWYQQRPGSSPTTVIYEDNQRPSGVPDRFSGSIDSSSNSASLTISGLKTEDEADYYCQSYDSTNHVFGTGTKVTVL
B10: G32Q3 (antibody, V domains shown)
VH: QVQLVQSGTEVKKPGASVKVSCKASGYTFPNYGITWVRQAPGQGLEWVGWISAYNGNTNYAQKLQGRVTMTTDTSTNTAYMELRSLRSDDTAVYYCARSIAVAGTTAEFDYWGQGTLVTVSS
VL: not shown
B11: C15D10 (antibody, V domains shown)
VH: QVQLQQSGPGLVKPSQTLSLTCAISGDSVSSNSAAWNWIRQSPSRGLEWLGRTYYRSKWYNDYAVSVKSRITINPDTSKNQFSLQLNSVTPEDTAVYYCAREQQLVSHDYYYYYGMDVWGQGTTVTVSS
VL: QSALTQPASVSGSPGQSITISCTGTSSDVGGYNYVSWYQQHPGKAPKLMIYDVSNRPSGVSNRFSGSKSGNTASLTISGLQAEDEADYYCSSYTSSSSLFGTGTKVTVL
B12: G32Q4 (antibody, V domains shown)
VH: QVQLVESGGGVVQPGRSLRLSCAASGFTFSRYAMQWVRQAPGKGLEWVAVISYDGNNRYYADSVKGRFTISRDNSKNTLYLQMNSLRAEDTAVYYCARGPPGYYDSSGYYQTPEYFQHWGQGTLVTVSS
VL: QSVLTQPPSVSGAPGQRVTISCTGSSSNIGVGYDVHWYQQFPGTVPKLLIYGNSNRPSGVPDRFSGSKSGTSASLAITGLQAEDEADYYCQSYDSSLSGVVFGGGTKLTVL
B13: C12D5 (antibody, V domains shown)
VH: QVQLVESGGGVVQPGRSLRLSCAASGFTFSSYVMHWVRQAPGKGLEWVAVISYDGSNKYYADSVKGRFTISRDNSKNTLYLQMNSLRAEDTAVYYCARDPGARRDGYVSLGGSYDWFDPWGQGTLVTVSS
VL: B12 VL with S25T, V31A, F41L, V45A, V100W
B14: C18C11 (antibody, V domains shown)
VH: EVQLVESGGGVVQPGRSLRLSCAASGFTFSSYAMHWVRQAPGKGLEWVAVISYDGSNKYYADSVKGRFTISRDNSKNTLYLQMNSLRAEDTAVYYCASLITMVRGVFDYWGQGTLVTVSS
VL: not shown
B15: C53F11 (antibody, V domains shown)
VH: QVQLQESGPGLVKPSETLSLTCTVSGYSISSGYYWGWIRQPPGKGLEWIGSIYHSESTYYNPSLKSRVTISVDTSKSQFSLKLSSVTAADTAVYYCGRSLWDSIWEDHIGAVDYWGQGTLVTVSS
VL: QSALTQPASVSGSPGQSITISCTGTSSDVGNYNLVSWYQQHPGKAPKLMIYEGSKRPSGVSNRFSGSKSGNTASLTISGLQAEDEADYYCCSYAGSSILWVFGGGTKLTVL
B16: G32B1 (antibody, V domains shown)
VH: QVQLVESGGGVVQPGRSLRLSCAASGFTFSSYGMHWVRQAPGKGLEWVAVISYDGSNKYYADSVKGRFTISRDNSKNTLYLQMNSLRAEDTAVYYCAKVVAPYYYYYYGMDVWGQGTTVTVSS
VL: B15 VL with N31G, L34Y, G53V, K55N, C91S, A94T, G95S, I98T, L99S
B17: C12C10 (antibody, V domains shown)
VH: not shown
VL: B15 VL with N31G, L34Y, E52D, G53V, K55Y, C91S, A94T, G95S, W100G
B18: C53F9 (antibody, V domains shown)
VH: QVQLVQSGAEVKKPGASVKVSCKASGYTFTSYGISWVRQAPGQGLEWMGWISAYNGNTNYAQKLQGRVTMTTDTSTSTAYMELRSLRSDDTAVYYCARVGTYYYDSSAYYFDYWGQGTLVTVSS
VL: not shown
B19: C102A4 (antibody, V domains shown)
VH: QVQLVQSGAEVKKPGSSVKVSCKASGGTFSSYAISWVRQAPGQGLEWMGGIIPIFGTANYAQKFQGRVTITADESTSTAYMELSSLRSEDTAVYYCATQPSYGDLDLFDYWGQGTLVTVSS
VL: not shown
B20: C98C7 (antibody, V domains shown)
VH: EVQLVESGGGLVQPGGSLRLSCAASGITVSSNYMSWVRQAPGKGLEWVSVIYSGGSTFYADSVKGRFTISRDNSKNTLYLQMSSLRAEDTAVYYCARDLVVFGMDVWGQGTTVTVSS
VL: EIVLTQSPGTLSLSPGETATLSCRASQSVGSSYLTWYQQKPGQAPRLLIYGASSRATGIPDRFSGSGSGTDFTLTISRLEPEDFAVYYCQHYGSSPTFGQGTKVEIK
B21: C12E7 (antibody, V domains shown)
VH: QVQLVESGGGVVQPGRSLRLSCAASGFTFSSYGMHWVRQAPGKGLEWVAVISYDGSNKYYADSVKGRFTISRDNSKNTLYLQMNSLRAEDTAVYYCAKSGYSYAYPMVYFDYWGQGTLVTVSS
VL: SYELTQPPSVSVAPGKTARITCGGNNIGSKSVHWYQQKPGQAPVLVVYDDSDRPSGIPERFSGSNSGNTATLTISRVEAGDEADYYCQVWDSSSDHPGVFGGGTKLTVL
B22: C93D1 (antibody, V domains shown)
VH: B21 VH with S31N, S99G, G100S, S102F, Y103H, A104S, Y105N, P106Y, M107W, V108D
VL: not shown
B23: C15D4 (antibody, V domains shown)
VH: QVQLQQWGAGLLKPSETLSRTCAVYGGSFSGYYWTWIRQPPGMALEWIGDINHGGVTNYNPSLKSRVTISVDTSKNQFSLRLTSVTAADTAVYYCARRLLGDPRPASSSLSLRRVSYMDVWDKGTTVTVSS
VL: DIQMTQSPSSMSASVGDRVTITCRASQSISNYLNWYQQKPGRAPKLLIYGASSLQSGVPSRFGGSGSGTEFTLTITALQPEDSATYYCQQIHGAPPITFGQGTRLEIK
B24: G32C4 (antibody, V domains shown)
VH: EVQLVQSGAEVKKPGESLKISCKGSGYSFISYWIGWVRQMPGKGLEWMGIIYPGDSDTRYSPSFQGQVTISADKSISTAYLQWSSLKASDTAMYYCARMTQGYGTIRPLYYFDYWGQGTLVTVSS
VL: not shown
B25: C30C2 (antibody, V domains shown)
VH: EVQLVESGGGLVQPGGSLRLSCAASGFTVSSNYMSWVRQAPGKGLEWVSVIYSGGSTYYADSVKGRFTISRDNSKNTLYLQVNSLRAEDTAVYYCARDGRDNAFDIWGQGTMVTVSS
VL: not shown
B26: C53F10 (antibody, V domains shown)
VH: EVQLVQSGAEVKKPGESLRISCKGAGYSFTSYWITWVRQMPGKGLEWMGRIDPSDSYTNYSPSFEGHVTISADKSISTAYLQWSSLKASDTAMYYCARLYCGGDCPPGYWGQGTLVTVSS
VL: not shown

Target: SARS-CoV-2 S ectodomain trimer, prefusion-stabilized, 2P variant (Wrapp et al., 2020) (SARS-CoV-2, Wuhan-Hu-1, UniProt P0DTC2, stabilised)

Does B1 bind?
Result: binds

Does B2 bind?
Result: binds

Does B3 bind?
Result: binds

Does B4 bind?
Result: binds

Does B5 bind?
Result: binds

Does B6 bind?
Result: binds

Does B7 bind?
Result: binds

Does B8 bind?
Result: binds

Does B9 bind?
Result: binds

Does B10 bind?
Result: binds

Does B11 bind?
Result: binds

Does B12 bind?
Result: binds

Does B13 bind?
Result: binds

Does B14 bind?
Result: binds

Does B15 bind?
Result: binds

Does B16 bind?
Result: binds

Does B17 bind?
Result: binds

Does B18 bind?
Result: binds

Does B19 bind?
Result: binds

Does B20 bind?
Result: binds

Does B21 bind?
Result: binds

Does B22 bind?
Result: binds

Does B23 bind?
Result: binds

Does B24 bind?
Result: binds

Does B25 bind?
Result: binds

Does B26 bind?
Result: binds
